Measured values from publication PMC6321028, “2′-Fluoro-Pyrimidine-Modified RNA Aptamers Specific for Lipopolysaccharide Binding Protein (LBP)”.

Tests used:
[1] = biological target: EF-Tu (Thermus thermophilus, UniProt Q5SHN6 2-406); assay: nitrocellulose filter binding; 140 mM NaCl, 2.7 mM KCl, 10 mM Na2HPO4, 1.76 mM KH2PO4, 2 mM MgCl2; pH not stated; 37 °C, 1 h; RNA refolded; mLBP 15-1000 nM; settings: label: 32P (internal or 5'); three-helix junction, helices P1-P4
[2] = biological target: T1, murine lipopolysaccharide binding protein (mLBP-His6) (Mus musculus, UniProt Q61805 25-481); assay: nitrocellulose filter binding; 2 mM MgCl2; 140 mM NaCl, 2.7 mM KCl, 10 mM Na2HPO4, 1.76 mM KH2PO4, 2 mM MgCl2; pH not stated; 37 °C, 1 h; RNA refolded; mLBP 15-1000 nM; settings: protein: recombinant; tags: C-terminal His6; label: 32P (internal or 5'); three-helix junction, helices P1-P4
T1 sequence: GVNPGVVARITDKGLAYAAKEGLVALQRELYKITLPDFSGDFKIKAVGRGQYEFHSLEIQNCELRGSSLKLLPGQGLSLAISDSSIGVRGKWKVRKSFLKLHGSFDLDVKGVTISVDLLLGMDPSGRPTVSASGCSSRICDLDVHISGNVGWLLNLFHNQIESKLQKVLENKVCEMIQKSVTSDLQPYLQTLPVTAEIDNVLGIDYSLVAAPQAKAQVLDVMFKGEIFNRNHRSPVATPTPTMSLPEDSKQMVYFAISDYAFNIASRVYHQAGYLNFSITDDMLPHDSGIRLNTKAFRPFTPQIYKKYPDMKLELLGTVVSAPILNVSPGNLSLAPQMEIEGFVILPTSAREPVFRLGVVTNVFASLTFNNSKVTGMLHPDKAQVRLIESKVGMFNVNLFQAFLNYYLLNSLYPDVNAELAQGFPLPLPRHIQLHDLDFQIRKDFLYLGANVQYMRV

[3] = biological target: T1, murine lipopolysaccharide binding …; assay: nitrocellulose filter binding; affinity comparable to A011, among the best binders (screen range about 200-800 nM); 140 mM NaCl, 2.7 mM KCl, 10 mM Na2HPO4, 1.76 mM KH2PO4, 2 mM MgCl2; pH not stated; 37 °C, 1 h; RNA refolded; mLBP 15-1000 nM; settings: protein: recombinant; tags: C-terminal His6; label: 32P; three-helix junction (predicted)
[4] = biological target: T1, murine lipopolysaccharide binding …; assay: 140 mM NaCl, 2.7 mM KCl, 10 mM Na2HPO4, 1.76 mM KH2PO4, 2 mM MgCl2; pH not stated; 37 °C, 1 h; RNA refolded; mLBP 15-1000 nM; settings: protein: recombinant; tags: C-terminal His6; three-helix junction
[5] = biological target: T1, murine lipopolysaccharide binding …; assay: boundary experiment, nitrocellulose filter retention; 200 or 400 nM mLBP; no apparent effect on affinity; 140 mM NaCl, 2.7 mM KCl, 10 mM Na2HPO4, 1.76 mM KH2PO4, 2 mM MgCl2; pH not stated; 37 °C, 1 h; RNA refolded; mLBP 15-1000 nM; settings: protein: recombinant; tags: C-terminal His6; label: 5' 32P; P1 pairs U6-G11 with C65-A70

Chain of EF-Tu (Q5SHN6 2-406): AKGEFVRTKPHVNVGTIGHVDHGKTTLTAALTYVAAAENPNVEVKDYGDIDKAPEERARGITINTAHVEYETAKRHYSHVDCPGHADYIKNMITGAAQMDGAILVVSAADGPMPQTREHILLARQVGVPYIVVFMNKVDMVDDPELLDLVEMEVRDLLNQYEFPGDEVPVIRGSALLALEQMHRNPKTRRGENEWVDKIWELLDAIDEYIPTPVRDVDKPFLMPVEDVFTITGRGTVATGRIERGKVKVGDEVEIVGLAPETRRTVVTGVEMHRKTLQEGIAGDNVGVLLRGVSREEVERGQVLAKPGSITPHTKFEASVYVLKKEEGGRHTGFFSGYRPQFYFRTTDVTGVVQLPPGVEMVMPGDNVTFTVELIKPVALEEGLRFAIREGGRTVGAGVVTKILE

B1: A011 (XNA)
RNA: GGGAAUUCGAGCUCGGUACCGGACUGUGGAUUGUUCUGGGUGCCGCUUCUCCGAAUAUCGGACUCUCGAACUCCUGGGGACUGCAGGCAUGCAAGCUUGG
modifications: 2'-fluoro C and U (all pyrimidines); A and G ribo
binding result [1]: no binding
Kd [2]: 267 nM

B2: A036 (XNA)
RNA: GGGAAUUCGAGCUCGGUACCGAUAUACGGUGCCGCUUCUCUAACCGGUGGUCAUGCGGUUGGACGCUCGAACAGACUACUGCAGGCAUGCAAGCUUGG
modifications: 2'-fluoro C and U
binding result [3]: binds

B3: A011 del 76-100 (XNA)
RNA: GGGAAUUCGAGCUCGGUACCGGACUGUGGAUUGUUCUGGGUGCCGCUUCUCCGAAUAUCGGACUCUCGAACUCCU
modifications: 2'-fluoro C and U
binding signal [4]: ~5 fold reduction in affinity vs A011

B4: A011 1-70 (3' boundary fragment) (XNA)
RNA: GGGAAUUCGAGCUCGGUACCGGACUGUGGAUUGUUCUGGGUGCCGCUUCUCCGAAUAUCGGACUCUCGAA
modifications: 2'-fluoro C and U
binding result [5]: binds
